From patent US20060105403A1 (published 2006)

What was measured:
[1] = molecular target: T1, murine ACC-α (acetyl-Coenzyme-A carboxylase, α form), endogenous protein of murine cell lysates (murine, UniProt Q5SWU9 1-2345); assay: GST co-sedimentation, Western blot with streptavidin-peroxidase
Description: (§1) The proteins for fusion with GST were synthesised in Escherichia coli, strain JM 109 (Promega) transformed with pGEX-4T-1, pGEX-BRCT, pGEX-BRCT A, pGEX-BRCT B, pGEX-BRCT L, pGEX-BRCT M or pGEX-BRCTh as well as the mutated forms of BRCTh (A1708E, P1749R, M1775R, R1835X and Y1853X). They were purified by affinity chromatography on Glutathione-Sepharose. The test of binding by co-sedimentation was carried out in vitro by incubating cellular lysates in the presence of non-recombinant GST proteins or GST fusion proteins and Glutathione-Sepharose beads. 10 μg of GST or fusion GST were used in each binding test. The protein complexes were carefully washed (50 mM Tris HCl pH 7.6, 100 mM KCl, 0.05% Tween 20, 1 mM DTT, 0.2 mM PMSF) to eliminate the non-specific protein interactions and released by heating at 100° C. in loading buffer 5× SDS-PAGE and 100 mM DTT. The proteins were analysed by SDS-PAGE and visualised by autoradiography, staining with silver (Bio-Rad SilverStain) or staining with Coomassie blue according to the nature of the lysate used
In order to map the domain of interaction of ACC-α on the BRCT tandem of Brca1, co-sedimentation tests with six distinct fusion proteins were carried out. The protein complexes of co-sedimentation were resolved by SDS-PAGE and visualised by Western Blot. The ACC protein containing the biotin was detected using peroxidase coupled with streptavidin, and as streptavidin has a high affinity for biotin it is therefore a very sensitive probe for detecting ACC-α (Witters, L. A. et al, 1994). […] However, the fragment GST-BRCT A which lacks the sequences of the domain B of BRCT is incapable of combining with ACC-α.

[2] = molecular target: T1, murine ACC-α (acetyl-Coenzyme-A …); assay: GST co-sedimentation with the mutated tandem
Description: as §1
Numerous familial mutations have been found in the carboxy-terminal segment of BRCA1. One of these, R1835X, localised in the distal domain of BRCT, introduces a non-sense codon which suppresses the last 29 amino acids of Brca1 and thus breaks the second BRCT domain. […]

[3] = molecular target: T1, murine ACC-α (acetyl-Coenzyme-A …); assay: GST co-sedimentation in a lysate of murine fibroblasts
Text: The inventors have shown that the tandem of the two BRCT domains was necessary and sufficient for the formation of this complex. Moreover, the inventors have shown that the formation of this complex was conserved in the human cells, using a GST-human BRCT fusion protein in co-sedimentation experiments similar to those cited above.
as §1

[4] = molecular target: T1, murine ACC-α (acetyl-Coenzyme-A …); assay: GST co-sedimentation on NIH3T3 lysate

Binder	binding result [1]	further results
GST-Brca1 N (GST fusion containing the 220 N-terminal residues of murine Brca1) (other, also called GST fusion protein expressing the 220 amino-terminal residues of the murine Brca1 protein; not shown: glutathione S-transferase (GST); the vector for this construct is not described) MDLSAVQIQEVQNVLHAMQKILECPICLELIKEPVSTKCDHIFCKFCMLKLLNQKKGPSQCPLCKNEITKRSLQGSTRFSQLAEELLRIMAAFELDTGMQLTNGFSFSKKRNNSCERLNEEASIIQSVGYRNRVRRLPQVEPGNATLKDSLGVQLSNLGIVRSVKKNRQTQPRKKSVYIELDSDSSEETVTKPGDCSVRDQELLQTAPQEAGDEGKLHSA	no binding (tested: 10 µg of fusion GST per binding test)	
GST-BRCT M (GST-BRCT of murine Brca1 with the non-sense mutation W1777X) (other, also called mutated tandem; pGEX-BRCT M product; not shown: GST carrier and vector linker of pGEX-4T-1 at the N end) TSSEERADRDISMVVSGLTPKEVMTVQKFAEKYRLTLTDAITEETTHVIIKTDAEFVCERTLKYFLGIAGGKWIVSYSWVVRSIQERRLLNVHEFEVKGDVVTGRNHQGPRRSRESREKLFKGLQVYCCEPFTNMPKDELERMLQLCGASVVKELPSLTHDTGAHLVVIVQPSAWTEDSNCPDIGQLCKARLVM		binding result [2]: no binding (tested: 10 µg of fusion GST per binding test)
GST-BRCT B (GST fusion with the second BRCT module of murine Brca1 alone) (other, also called BRCT B module alone; pGEX-BRCT B product; not shown: GST carrier and vector linker of pGEX-4T-1 at the N end) REKLFKGLQVYCCEPFTNMPKDELERMLQLCGASVVKELPSLTHDTGAHLVVIVQPSAWTEDSNCPDIGQLCKARLVMWDWVLDSLSSYRCRGLDAYLVQNITCDSSEPQDSND	no binding (tested: 10 µg of fusion GST per binding test)	
GST-BRCT A (GST fusion with the first BRCT module of murine Brca1 alone) (other, It uses the same forward primer as GST-BRCT, so it probably starts at residue 1583; also called BRCT A module alone; pGEX-BRCT A product; not shown: GST carrier and vector linker of pGEX-4T-1 at the N end) TSSEERADRDISMVVSGLTPKEVMTVQKFAEKYRLTLTDAITEETTHVIIKTDAEFVCERTLKYFLGIAGGKWIVSYSWVVRSIQERRLLNVHEFEVKGDVVTGRNHQGPRRSRESREKLFKG	no binding (tested: 10 µg of fusion GST per binding test)	
GST-BRCT (GST fusion protein containing amino acids 1583 to 1812 of murine Brca1) (other, Made in E. coli and held on glutathione-Sepharose beads; also called murine BRCT tandem; BRCT tandem of Brca1; not shown: glutathione S-transferase (GST) encoded by pGEX-4T-1 (Amersham Pharmacia Biotech)) TSSEERADRDISMVVSGLTPKEVMTVQKFAEKYRLTLTDAITEETTHVIIKTDAEFVCERTLKYFLGIAGGKWIVSYSWVVRSIQERRLLNVHEFEVKGDVVTGRNHQGPRRSRESREKLFKGLQVYCCEPFTNMPKDELERMLQLCGASVVKELPSLTHDTGAHLVVIVQPSAWTEDSNCPDIGQLCKARLVMWDWVLDSLSSYRCRGLDAYLVQNITCDSSEPQDSND		binding result [3]: binds
GST-BRCT L (GST fusion containing residues 1512-1812 of murine Brca1) (other, also called longer form of the murine BRCT domain; pGEX-BRCT L product; not shown: glutathione S-transferase (GST) encoded by pGEX-4T-1) EGTPYLGSGISLFSSRDPESESPKEPAHIGTTPASTSALKIPQGQVAFRSAAAAGADKAVVGIVSKIKPELTSSEERADRDISMVVSGLTPKEVMTVQKFAEKYRLTLTDAITEETTHVIIKTDAEFVCERTLKYFLGIAGGKWIVSYSWVVRSIQERRLLNVHEFEVKGDVVTGRNHQGPRRSRESREKLFKGLQVYCCEPFTNMPKDELERMLQLCGASVVKELPSLTHDTGAHLVVIVQPSAWTEDSNCPDIGQLCKARLVMWDWVLDSLSSYRCRGLDAYLVQNITCDSSEPQDSND	binds	
GST-BRCTh (GST fusion with the human form of the BRCT tandem of BRCA1) (other, also called GST-human BRCT fusion protein; human BRCT tandem; not shown: glutathione S-transferase (GST) encoded by the pGEX vector) TASTERVNKRMSMVVSGLTPEEFMLVYKFARKHHITLTNLITEETTHVVMKTDAEFVCERTLKYFLGIAGGKWVVSYFWVTQSIKERKMLNEHDFEVRGDVVNGRNHQGPKRARESQDRKIFRGLEICCYGPFTNMPTDQLEWMVQLCGASVVKELSSFTLGTGVHPIVVVQPDAWTEDNGFHAIGQMCEAPVVTREWVLDSVALYQCQELDTYLIPQIPHSHY		binding result [4]: binds
